These results are taken from article PMC2199935.

The target of test [1] is beta-catenin (canine (endogenous in MDCK)) (UniProt B6V8E6). The test is described as follows: co-IP.
The target in test [2] is p120/p100 (anti-p120 immunoreactive material), canine (canine (endogenous in MDCK)). The test is described as follows: co-IP.

On to “p120/p100 (anti-p120 immunoreactive material), canine (natural protein)”, for which, in test [1], the percent of the pool in association, normalised to 100% efficiency is 21%.

B1: beta-catenin (natural protein)
chain: MATQADLMELDMAMEPDRKAAVSHWQQQSYLDSGIHSGATTTAPSLSGKGNPEEEDVDTTQVLYEWEQGFSQSFTQEQVADIDGQYAMTRAQRVRAAMFPETLDEGMQIPSTQFDAAHPTNVQRLAEPSQMLKHAVVNLINYQDDAELATRAIPELTKLLNDEDQVVVNKAAVMVHQLSKKEASRHAIMRSPQMVSAIVRTMQNTNDVETARCTAGTLHNLSHHREGLLAIFKSGGIPALVKMLGSPVDSVLFYAITTLHNLLLHQEGAKMAVRLAGGLQKMVALLNKTNVKFLAITTDCLQILAYGNQESKLIILASGGPQALVNIMRTYTYEKLLWTTSRVLKVLSVCSSNKPAIVEAGGMQALGLHLTDPSQRLVQNCLWTLRNLSDAATKQEGMEGLLGTLVQLLGSDDINVVTCAAGILSNLTCNNYKNKMMVCQVGGIEALVRTVLRAGDREDITEPAICALRHLTSRHQEAEMAQNAVRLHYGLPVVVKLLHPPSHWPLIKATVGLIRNLALCPANHAPLREQGAIPRLVQLLVRAHQDTQRRTSMGGTQQQFVEGVRMEEIVEGCTGALHILARDVHNRIVIRGLNTIPLFVQLLYSPIENIQRVAAGVLCELAQDKEAAEAIEAEGATAPLTELLHSRNEGVATYAAAVLFRMSEDKPQDYKKRLSVELTSSLFRTEPMAWNETADLGLDIGAQGEPLGYRQDDPSYRSFHSGGYGQDALGMDPMMEHEMGGHHPGADYPVDGLPDLGHAQDLMDGLPPGDSNQLAWFDTDL
For the molecule B1, in test [2], the percent of the pool in association, normalised to 100% efficiency amounted to 24%.
